From patent US20240400701A1 (LANOVA MEDICINES DEVELOPMENT, published 2024) come the findings set out here.

Assay [1] concerns the target T1, human AMHRII (anti-Mullerian hormone receptor type 2) (human, UniProt Q16671 18-573).
T1 construct: whole, on cells; also called AMHR2; human AMHR2
T1 sequence (looked up): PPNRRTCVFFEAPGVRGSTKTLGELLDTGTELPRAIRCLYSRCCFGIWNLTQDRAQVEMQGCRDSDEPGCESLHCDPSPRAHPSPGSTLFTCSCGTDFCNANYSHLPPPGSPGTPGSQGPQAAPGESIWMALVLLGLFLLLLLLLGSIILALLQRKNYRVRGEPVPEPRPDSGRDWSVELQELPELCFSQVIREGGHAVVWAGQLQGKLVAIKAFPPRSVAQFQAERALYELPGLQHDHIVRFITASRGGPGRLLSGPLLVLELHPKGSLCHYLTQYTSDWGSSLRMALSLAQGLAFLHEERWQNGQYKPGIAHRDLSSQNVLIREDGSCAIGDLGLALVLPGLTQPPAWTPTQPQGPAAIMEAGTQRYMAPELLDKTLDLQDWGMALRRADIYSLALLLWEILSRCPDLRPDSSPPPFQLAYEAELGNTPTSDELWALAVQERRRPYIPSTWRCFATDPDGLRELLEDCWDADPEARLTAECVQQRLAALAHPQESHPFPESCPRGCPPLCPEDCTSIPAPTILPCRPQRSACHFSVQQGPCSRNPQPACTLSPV
The experiment in a line: FACS on CHO-K1 cells over-expressing human AMHR2. How it is done: (§1) CHO-K1 cells over-expressed AMHR2 were harvested from flasks. 100 μl of 1×10⁶ cells/ml of cells were incubated with the humanized antibodies in 3-fold serial dilutions starting from 300 nM to 0.001 nM for 30 minutes on ice. After being washed with 200 μl of FACS buffer twice, cells were incubated with secondary antibody for 30 minutes on ice. Cells were washed with 200 μl of FACS buffer twice and analyzed by FACS.

Assay [2] deals with T1, human AMHRII (anti-Mullerian hormone …). The experiment in a line: FACS on CHO-K1 cells over-expressing human AMHR2. On the procedure:
as §1
This is another data set of the same source.

The target is the same in assay [3]. The experiment in a line: FACS on Rko cells over-expressing human AMHR2. How it is done:
Rko cells over-expressing AMHR2 were harvested from flasks. 100 μl of 1×10⁶ cells/ml of cells were incubated with primary PTM antibodies in 3-fold serial dilutions starting from 300 nM to 0.001 nM for 30 minutes on ice. After being washed with 200 μl of FACS buffer twice, cells were incubated with secondary antibody for 30 minutes on ice. Cells were washed with 200 μl of FACS buffer twice and analyzed by FACS.

Assay [4] has the same target. The experiment in a line: FACS on CHO-K1 cells over-expressing human AMHR2. How it is done: as §1
This is another data set of the same source.

B1: 108F3D1E9 H4L2 hIgG1 (antibody, V domains shown)
VH: QVQLQESGPGLVKPSETLSLTCTVSGYSITSDFAWNWIRQFPGKGLEWMGYISFSGSTSYNPSLKSRITISRDTSKNQFFLQLSSVTAEDTAVYYCAGSRYSWFAYWGQGTLVTVSS
VL: DIQLTQSPSSLSASVGDRVTITCRASESVDTYGNSFMHWYQQKPGKPPKLLIYRASNLESGIPSRFSGSGSGTDFTLTISSLQPEDFATYYCQQSNEDPYTFGGGTKVEIK
notes: Humanized, human IgG1; also called 108F3D1E9 H4L2 hlgG1
Broadly, the EC50 is the concentration giving half of the maximal effect. A low value points to greater potency. For the molecule B1, in assay [1], the EC50 was determined as 0.68 nM and the “Top (MFI)” value is 67900 MFI.

B2: 108F3D1E9 H4L4 hIgG1 (antibody, V domains shown)
VH: QVQLQESGPGLVKPSETLSLTCTVSGYSITSDFAWNWIRQFPGKGLEWMGYISFSGSTSYNPSLKSRITISRDTSKNQFFLQLSSVTAEDTAVYYCAGSRYSWFAYWGQGTLVTVSS
VL: DIVLTQSPSSLSVSVGDRATITCRASESVDTYGNSFMHWYQQKPGQPPKLLIYRASNLESGIPARFSGSGSRTDFTLTISSVQPEDFATYYCQQSNEDPYTFGGGTKLEIK
notes: Humanized, human IgG1; also called 108F3D1E9 H4L4 hlgG1
On to B2, for which, in assay [1], the EC50 came to 0.65 nM and the “Top (MFI)” value stood at 70600 MFI.

B3: 94C4C3 H3L4 hIgG1 (antibody, V domains shown)
VH: QVQLQESGPGLVKPSETLSLTCTVSGYSITSDYAWNWIRQFPGKGLEWMGYISYSGSISYNPSLKSRITISRDTSKNQFFLKLSSVTAADTAVYYCARSRYSWFDYWGQGTLVTVSS
VL: DIVLTQSPGTLSVSPGERATLSCSASESVDTYGNSFMHWYQQKPGQPPKLLIYRASSLESGIPVRFSGSGSRTDFTLTISRVEAEDFAVYYCQQSNEDPYTFGGGTKLEIK
notes: Humanized, human IgG1; also called 94C4C3 H3L4 hlgG1
In the case of B3, in assay [2], the EC50 was found to be 1.35 nM and the “Top (MFI)” value turned out to be 48100 MFI.

B4: 94C4C3 H3L1 hIgG1 (antibody, V domains shown)
VH: QVQLQESGPGLVKPSETLSLTCTVSGYSITSDYAWNWIRQFPGKGLEWMGYISYSGSISYNPSLKSRITISRDTSKNQFFLKLSSVTAADTAVYYCARSRYSWFDYWGQGTLVTVSS
VL: EIVLTQSPGTLSLSPGERATLSCSASESVDTYGNSFMHWYQQKPGQAPRLLIYRASSLESGIPDRFSGSGSGTDFTLTISRLEPEDFAVYYCQQSNEDPYTFGGGTKVEIK
notes: Humanized, human IgG1; also called 94C4C3 H3L1 hlgG1
Regarding B4, in assay [2], the EC50 is 1.32 nM and the “Top (MFI)” value is 51000 MFI.

B5: 94C4C3 H3L3 hIgG1 (antibody, V domains shown)
VH: QVQLQESGPGLVKPSETLSLTCTVSGYSITSDYAWNWIRQFPGKGLEWMGYISYSGSISYNPSLKSRITISRDTSKNQFFLKLSSVTAADTAVYYCARSRYSWFDYWGQGTLVTVSS
VL: EIVLTQSPGTLSLSPGERATLSCSASESVDTYGNSFMHWYQQKPGQPPRLLIYRASSLESGIPVRFSGSGSRTDFTLTISRVEAEDFAVYYCQQSNEDPYTFGGGTKLEIK
notes: Humanized, human IgG1; also called 94C4C3 H3L3 hlgG1
As to B5, in assay [2], the EC50 is 1.03 nM and the “Top (MFI)” value was 46300 MFI.

B6: 108F3D1E9 H4L3 hIgG1 (antibody, V domains shown)
VH: QVQLQESGPGLVKPSETLSLTCTVSGYSITSDFAWNWIRQFPGKGLEWMGYISFSGSTSYNPSLKSRITISRDTSKNQFFLQLSSVTAEDTAVYYCAGSRYSWFAYWGQGTLVTVSS
VL: DIVLTQSPSSLSASVGDRVTITCRASESVDTYGNSFMHWYQQKPGQPPKLLIYRASNLESGIPARFSGSGSGTDFTLTISSVQPEDFATYYCQQSNEDPYTFGGGTKVEIK
notes: Humanized, human IgG1; also called 108F3D1E9 H4L3 hlgG1
Take B6: in assay [1], the midpoint of the response, the EC50, lay at 0.74 nM and the “Top (MFI)” value is 67300 MFI.

B7: 94C4C3 H3L2 hIgG1 (antibody, V domains shown)
VH: QVQLQESGPGLVKPSETLSLTCTVSGYSITSDYAWNWIRQFPGKGLEWMGYISYSGSISYNPSLKSRITISRDTSKNQFFLKLSSVTAADTAVYYCARSRYSWFDYWGQGTLVTVSS
VL: EIVLTQSPGTLSLSPGERATLSCSASESVDTYGNSFMHWYQQKPGQPPRLLIYRASSLESGIPVRFSGSGSRTDFTLTISRLEPEDFAVYYCQQSNEDPYTFGGGTKVEIK
notes: Humanized, human IgG1; also called 94C4C3 H3L2 hlgG1
In the case of B7, in assay [2], a half-maximal effect (EC50) was put at 1.23 nM and the “Top (MFI)” value came out at 47700 MFI.

B8: 31D9B3 VH1.2-VL2 hIgG1 (antibody, V domains shown)
VH: QVQLVQSGAEVKKPGASVKVSCKASGYTFTDYWVSWVRQAPGQGLEWMGEIYPKNDVSNFNEKFKGRVTMTTDTSTSTAYMELRSLRSDDTAVYYCARQRDYWGQGTLVTVSS
VL: DVVMTQSPLSLPVTLGQPASISCRSSQSLEYGDGYTYLEWYLQRPGQSPRLLIYGVSNRFSGVPDRFSGSGSGTDFTLKISRVEAEDVGVYYCFQATHDPNTFGQGTKLEIK
notes: Humanized, PTM de-risked (VH G55D), human IgG1; also called 31D9B3 VH1.2-VL2 hlgG1
For the molecule B8, in assay [3], the EC50 was determined as 1.35 nM and the “Top (MFI)” value came to 18200 MFI. In addition, in assay [4], the response was half-maximal at 1.51 nM (EC50) and the “Top (MFI)” value amounted to 26800 MFI.

B9: 31D9B3 VH1.3-VL2.1 hIgG1 (antibody, V domains shown)
VH: QVQLVQSGAEVKKPGASVKVSCKASGYTFTDYWVSWVRQAPGQGLEWMGEIYPKNQVSNFNEKFKGRVTMTTDTSTSTAYMELRSLRSDDTAVYYCARQRDYWGQGTLVTVSS
VL: DVVMTQSPLSLPVTLGQPASISCRSSQSLEYGSGYTYLEWYLQRPGQSPRLLIYGVSNRFSGVPDRFSGSGSGTDFTLKISRVEAEDVGVYYCFQATHDPNTFGQGTKLEIK
notes: Humanized, PTM de-risked, human IgG1; also called 31D9B3 VH1.3-VL2.1 hlgG1
For the molecule B9, in assay [4], the midpoint of the response, the EC50, lay at 1.2 nM and the “Top (MFI)” value is 10900 MFI.

B10: 31D9B3 VH1.3-VL2 hIgG1 (antibody, V domains shown)
VH: QVQLVQSGAEVKKPGASVKVSCKASGYTFTDYWVSWVRQAPGQGLEWMGEIYPKNQVSNFNEKFKGRVTMTTDTSTSTAYMELRSLRSDDTAVYYCARQRDYWGQGTLVTVSS
VL: DVVMTQSPLSLPVTLGQPASISCRSSQSLEYGDGYTYLEWYLQRPGQSPRLLIYGVSNRFSGVPDRFSGSGSGTDFTLKISRVEAEDVGVYYCFQATHDPNTFGQGTKLEIK
notes: Humanized, PTM de-risked (VH G55Q), human IgG1; also called 31D9B3 VH1.3-VL2 hlgG1
With B10, in assay [3], a half-maximal effect (EC50) was put at 0.976 nM and the “Top (MFI)” value is 17900 MFI. Besides, in assay [4], the EC50 amounted to 1.18 nM and the “Top (MFI)” value is 28000 MFI.

B11: 31D9B3 VH1.3-VL2.3 hIgG1 (antibody, V domains shown)
VH: QVQLVQSGAEVKKPGASVKVSCKASGYTFTDYWVSWVRQAPGQGLEWMGEIYPKNQVSNFNEKFKGRVTMTTDTSTSTAYMELRSLRSDDTAVYYCARQRDYWGQGTLVTVSS
VL: DVVMTQSPLSLPVTLGQPASISCRSSQSLEYGTGYTYLEWYLQRPGQSPRLLIYGVSNRFSGVPDRFSGSGSGTDFTLKISRVEAEDVGVYYCFQATHDPNTFGQGTKLEIK
notes: Humanized, PTM de-risked, human IgG1; also called 31D9B3 VH1.3-VL2.3 hlgG1
As for B11, in assay [4], the EC50 is 0.38 nM and the “Top (MFI)” value was determined as 12700 MFI.

B12: 31D9B3 VH1.2-VL2.1 hIgG1 (antibody, V domains shown)
VH: QVQLVQSGAEVKKPGASVKVSCKASGYTFTDYWVSWVRQAPGQGLEWMGEIYPKNDVSNFNEKFKGRVTMTTDTSTSTAYMELRSLRSDDTAVYYCARQRDYWGQGTLVTVSS
VL: DVVMTQSPLSLPVTLGQPASISCRSSQSLEYGSGYTYLEWYLQRPGQSPRLLIYGVSNRFSGVPDRFSGSGSGTDFTLKISRVEAEDVGVYYCFQATHDPNTFGQGTKLEIK
notes: Humanized, PTM de-risked, human IgG1; also called 31D9B3 VH1.2-VL2.1 hlgG1
Consider B12, for which, in assay [4], the response was half-maximal at 5.68 nM (EC50) and the “Top (MFI)” value is 10600 MFI.

B13: 31D9B3 VH1.2-VL2.3 hIgG1 (antibody, V domains shown)
VH: QVQLVQSGAEVKKPGASVKVSCKASGYTFTDYWVSWVRQAPGQGLEWMGEIYPKNDVSNFNEKFKGRVTMTTDTSTSTAYMELRSLRSDDTAVYYCARQRDYWGQGTLVTVSS
VL: DVVMTQSPLSLPVTLGQPASISCRSSQSLEYGTGYTYLEWYLQRPGQSPRLLIYGVSNRFSGVPDRFSGSGSGTDFTLKISRVEAEDVGVYYCFQATHDPNTFGQGTKLEIK
notes: Humanized, PTM de-risked, human IgG1; also called 31D9B3 VH1.2-VL2.3 hlgG1
On to B13, for which, in assay [4], the EC50 is 0.617 nM and the “Top (MFI)” value was 12900 MFI.

B14: 31D9B3 VH1.2-VL2.2 hIgG1 (antibody, V domains shown)
VH: QVQLVQSGAEVKKPGASVKVSCKASGYTFTDYWVSWVRQAPGQGLEWMGEIYPKNDVSNFNEKFKGRVTMTTDTSTSTAYMELRSLRSDDTAVYYCARQRDYWGQGTLVTVSS
VL: DVVMTQSPLSLPVTLGQPASISCRSSQSLEYGDRYTYLEWYLQRPGQSPRLLIYGVSNRFSGVPDRFSGSGSGTDFTLKISRVEAEDVGVYYCFQATHDPNTFGQGTKLEIK
notes: Humanized, PTM de-risked, human IgG1; also called 31D9B3 VH1.2-VL2.2 hlgG1
On to B14, for which, in assay [3], a half-maximal effect (EC50) was put at 0.878 nM and the “Top (MFI)” value was found to be 16300 MFI. Moreover, in assay [4], a half-maximal effect (EC50) was put at 0.856 nM and the “Top (MFI)” value was found to be 22000 MFI.
